The numbers were not newly measured in article PMC7768499, which cites them from elsewhere.

pKd: −log10 of the molar value.

Targets include IgA2 (Homo sapiens) (UniProt P01877); IgA (Homo sapiens) (UniProt P01876); IgA1 (Homo sapiens) (UniProt P01876).

Chain of FcαRI (P24071 22-287): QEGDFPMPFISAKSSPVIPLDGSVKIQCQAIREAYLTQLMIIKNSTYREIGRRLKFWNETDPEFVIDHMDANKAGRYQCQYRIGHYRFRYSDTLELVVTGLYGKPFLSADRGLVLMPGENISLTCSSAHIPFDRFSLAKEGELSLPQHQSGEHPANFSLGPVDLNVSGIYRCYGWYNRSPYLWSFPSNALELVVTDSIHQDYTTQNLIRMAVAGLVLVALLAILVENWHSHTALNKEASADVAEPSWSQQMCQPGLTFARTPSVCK
Chain of IgA (Homo sapiens) (P01876 whole entry): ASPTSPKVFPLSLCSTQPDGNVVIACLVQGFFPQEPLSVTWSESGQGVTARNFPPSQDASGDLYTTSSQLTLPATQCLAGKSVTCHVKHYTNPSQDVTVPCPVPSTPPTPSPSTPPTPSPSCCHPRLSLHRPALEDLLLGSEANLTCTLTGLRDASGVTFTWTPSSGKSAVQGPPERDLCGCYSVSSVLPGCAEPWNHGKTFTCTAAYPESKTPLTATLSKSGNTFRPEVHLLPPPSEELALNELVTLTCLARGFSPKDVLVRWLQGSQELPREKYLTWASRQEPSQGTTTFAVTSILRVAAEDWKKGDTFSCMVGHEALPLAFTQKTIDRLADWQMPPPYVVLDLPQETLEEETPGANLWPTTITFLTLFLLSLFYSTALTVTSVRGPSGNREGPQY
Chain of IgA1 (Homo sapiens) (P01876 whole entry): as above
Chain of IgA2 (Homo sapiens) (P01877 whole entry): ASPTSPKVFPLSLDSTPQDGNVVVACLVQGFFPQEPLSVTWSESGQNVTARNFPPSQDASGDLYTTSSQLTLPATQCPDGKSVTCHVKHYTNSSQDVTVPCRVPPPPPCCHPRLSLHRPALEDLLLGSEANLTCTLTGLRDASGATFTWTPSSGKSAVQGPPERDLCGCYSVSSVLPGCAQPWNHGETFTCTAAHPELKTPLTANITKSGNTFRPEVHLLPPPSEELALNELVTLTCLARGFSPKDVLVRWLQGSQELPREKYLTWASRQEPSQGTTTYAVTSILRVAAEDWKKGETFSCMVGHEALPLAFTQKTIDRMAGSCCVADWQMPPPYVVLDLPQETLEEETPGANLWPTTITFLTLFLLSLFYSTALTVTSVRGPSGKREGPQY

The pKd is the Kd on a negative log10 scale, so that one unit is a factor of ten. Take FcαRI (from UniProt P24071): the pKd in the series with IgA2 (Homo sapiens) is 7.70; with IgA (Homo sapiens) it was 7.70; with IgA1 (Homo sapiens) it was 6.81.
